The text below walks through data of patent US20060259987A1 (UNIVERSITY OF UTAH RESEARCH FOUNDATION, published 2006).

Among the targets are factor Xa (human, UniProt P00742 41-179; P00742 235-488, limits assumed); thrombin (human, UniProt P00734 328-622); human thrombin (human, UniProt P00734 328-622); human factor Xa (human, UniProt P00742 41-179; P00742 235-488, limits assumed).
Common to all, as to experiment: cell-based or functional assay

Chain of factor Xa (P00742 41-179 limits assumed, chain 1 of 2): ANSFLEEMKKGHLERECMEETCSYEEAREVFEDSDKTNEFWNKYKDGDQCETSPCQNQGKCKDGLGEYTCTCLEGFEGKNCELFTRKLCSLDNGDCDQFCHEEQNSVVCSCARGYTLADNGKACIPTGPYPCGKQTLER
Chain of factor Xa (P00742 235-488 limits assumed, chain 2 of 2): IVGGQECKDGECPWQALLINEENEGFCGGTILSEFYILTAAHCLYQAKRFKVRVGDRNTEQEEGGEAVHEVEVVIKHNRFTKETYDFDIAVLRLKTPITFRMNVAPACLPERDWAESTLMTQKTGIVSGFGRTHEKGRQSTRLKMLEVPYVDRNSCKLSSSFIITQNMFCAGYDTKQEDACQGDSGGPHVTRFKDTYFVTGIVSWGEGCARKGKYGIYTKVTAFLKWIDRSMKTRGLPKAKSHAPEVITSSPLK
Chain of human factor Xa (P00742 41-179 limits assumed, chain 1 of 2): as the sequence (P00742 41-179 limits assumed, chain 1 of 2) above
Chain of human factor Xa (P00742 235-488 limits assumed, chain 2 of 2): as the sequence (P00742 235-488 limits assumed, chain 2 of 2) above

B1: LEAI.477 (other)
chain: SPVDICTAKPRDIPMNPMCIYRSPEKKATEDEGSEQKIPEATNRRVWELSKANSRFATTFYQHLADSKNDNDNIFLSPLSISTAFAMTKLGACNDTLQQLMEVFKFDTISEKTSDQIHFFFAKLNCRLYRKANKASKLVSANRLFGDKSLTFNETYQDISELVYGAKLQPLDFKENAEQSRAAINKWVSNKTEGRITDVIPSEAINELTVLVLVNTIYFKGLWKSKFSPENTRKELFYKADGESCSASMMYQEGKFRYRRVAEGTQVLELPFKGDDITMVLILPKPEKSLAKVEKELTPEVLQEWLDELEEMMLVVHMPRFRIEDGFSLKEQLQDMGLVDLFSPEKSKLPGIVAEGRDDLYVSDAFHKAFLEVNEEGSEAAASTALEAPGRSLNPNRVTFKANRPFLVFIREVPLNTIIFMGRVANPCVK
As for B1, the “IC50 fXa/UFH; HCA #4” value in the test with factor Xa is 18 nM. The “IC50 IIa/UFH; HCA #4” value with thrombin was 333 nM.

B2: LEAI.479 (other)
chain: SPVDICTAKPRDIPMNPMCIYRSPEKKATEDEGSEQKIPEATNRRVWELSKANSRFATTFYQHLADSKNDNDNIFLSPLSISTAFAMTKLGACNDTLQQLMEVFKFDTISEKTSDQIHFFFAKLNCRLYRKANKASKLVSANRLFGDKSLTFNETYQDISELVYGAKLQPLDFKENAEQSRAAINKWVSNKTEGRITDVIPSEAINELTVLVLVNTIYFKGLWKSKFSPENTRKELFYKADGESCSASMMYQEGKFRYRRVAEGTQVLELPFKGDDITMVLILPKPEKSLAKVEKELTPEVLQEWLDELEEMMLVVHMPRFRIEDGFSLKEQLQDMGLVDLFSPEKSKLPGIVAEGRDDLYVSDAFHKAFLEVNEEGSEAAASTALEAWGRSLNPNRVTFKANRPFLVFIREVPLNTIIFMGRVANPCVK
With B2, the “IC50 fXa/UFH; HCA #3” value in the test with factor Xa was 100 nM. Also, the “IC50 IIa/UFH; HCA #3” value with thrombin was found to be 280 nM.

B3: LEAI.471 (other)
chain: SPVDICTAKPRDIPMNPMCIYRSPEKKATEDEGSEQKIPEATNRRVWELSKANSRFATTFYQHLADSKNDNDNIFLSPLSISTAFAMTKLGACNDTLQQLMEVFKFDTISEKTSDQIHFFFAKLNCRLYRKANKASKLVSANRLFGDKSLTFNETYQDISELVYGAKLQPLDFKENAEQSRAAINKWVSNKTEGRITDVIPSEAINELTVLVLVNTIYFKGLWKSKFSPENTRKELFYKADGESCSASMMYQEGKFRYRRVAEGTQVLELPFKGDDITMVLILPKPEKSLAKVEKELTPEVLQEWLDELEEMMLVVHMPRFRIEDGFSLKEQLQDMGLVDLFSPEKSKLPGIVAEGRDDLYVSDAFHKAFLEVNEEGSEAAASTALEARGRSLNPNRVTFKANRPFLVFIREVPLNTIIFMGRVANPCVK
B3: in the test with factor Xa, the “IC50 fXa/UFH; HCA #2” value is 275 nM, the “IC50 fXa/UFH; HCA #3” value came out at 320 nM, the “rsd. Xa catG; CA #12; stg1 conc 200” value was found to be 48% and the “rsd. Xa catG; CA #14; stg1 conc 200” value stood at 59%. Also, in the test with factor Xa, the “rsd. Xa catG; CA #15; stg1 conc 200” value is 82%, the “rsd. Xa hne; CA #12; stg1 conc 200” value stood at 86%, the “rsd. Xa hne; CA #14; stg1 conc 200” value turned out to be 100% and the “rsd. Xa hne; CA #15; stg1 conc 200” value stood at 103%. In addition, in the test with factor Xa, the “rsd. Xa no add; CA #12; stg1 conc 200” value stood at 45%, the “rsd. Xa no add; CA #14; stg1 conc 200” value worked out at 44% and the “rsd. Xa no add; CA #15; stg1 conc 200” value was found to be 57%. For the same molecule, in the test with thrombin, the “IC50 IIa/UFH; HCA #2” value was 37 nM, the “IC50 IIa/UFH; HCA #3” value was determined as 35 nM, the “rsd. IIa catG; CA #12; stg1 conc 200” value amounted to 0% and the “rsd. IIa catG; CA #14; stg1 conc 200” value was found to be 1%. In the test with thrombin, the “rsd. IIa catG; CA #15; stg1 conc 200” value came out at 1%, the “rsd. IIa hne; CA #12; stg1 conc 200” value is 62%, the “rsd. IIa hne; CA #14; stg1 conc 200” value was 41% and the “rsd. IIa hne; CA #15; stg1 conc 200” value amounted to 65%. For the same molecule, in the test with thrombin, the “rsd. IIa no add; CA #12; stg1 conc 200” value came to 0%, the “rsd. IIa no add; CA #14; stg1 conc 200” value is 2% and the “rsd. IIa no add; CA #15; stg1 conc 200” value was 2%.

B4: LEAQ.521 (other)
chain: SPVDICTAKPRDIPMNPMCIYRSPEKKATEDEGSEQKIPEATNRRVWELSKANSRFATTFYQHLADSKNDNDNIFLSPLSISTAFAMTKLGACNDTLQQLMEVFKFDTISEKTSDQIHFFFAKLNCRLYRKANKASKLVSANRLFGDKSLTFNETYQDISELVYGAKLQPLDFKENAEQSRAAINKWVSNKTEGRITDVIPSEAINELTVLVLVNTIYFKGLWKSKFSPENTRKELFYKADGESCSASMMYQEGKFRYRRVAEGTQVLELPFKGDDITMVLILPKPEKSLAKVEKELTPEVLQEWLDELEEMMLVVHMPRFRIEDGFSLKEQLQDMGLVDLFSPEKSKLPGIVAEGRDDLYVSDAFHKAFLEVNEEGSEAAASTHLEAQGRSLNPNRVTFKANRPFLVFIREVPLNTIIFMGRVANPCVK
Turning to B4, in the test with human thrombin, the “IC50 IIa/UFH (HCA #6)” value was found to be 100 nM. Moreover, the “IC50 fXa/UFH (HCA #6)” value in the test with human factor Xa was 25 nM.

B5: 13C.432 (other)
chain: SPVDICTAKPRDIPMNPMCIYRSPEKKATEDEGSEQKIPEATNRRVWELSKANSRFATTFYQHLADSKNDNDNIFLSPLSISTAFAMTKLGACNDTLQQLMEVFKFDTISEKTSDQIHFFFAKLNCRLYRKANKASKLVSANRLFGDKSLTFNETYQDISELVYGAKLQPLDFKENAEQSRAAINKWVSNKTEGRITDVIPSEAINELTVLVLVNTIYFKGLWKSKFSPENTRKELFYKADGESCSASMMYQEGKFRYRRVAEGTQVLELPFKGDDITMVLILPKPEKSLAKVEKELTPEVLQEWLDELEEMMLVVHMPRFRIEDGFSLKEQLQDMGLVDLFSPEKSKLPGIVAEGRDDLYVSDAFHKAFLEVNEEGSEAAASTELEIAGRSLNPNRVTFKANRPFLVFIREVPLNTIIFMGRVANPCVK
Consider B5, for which the “IC50 IIa/UFH; HCA #2” value with human thrombin amounted to 460 nM. Also, in the test with human factor Xa, the “IC50 fXa/UFH; HCA #2” value is 45 nM.

B6: LEAQ.514 (other)
chain: SPVDICTAKPRDIPMNPMCIYRSPEKKATEDEGSEQKIPEATNRRVWELSKANSRFATTFYQHLADSKNDNDNIFLSPLSISTAFAMTKLGACNDTLQQLMEVFKFDTISEKTSDQIHFFFAKLNCRLYRKANKASKLVSANRLFGDKSLTFNETYQDISELVYGAKLQPLDFKENAEQSRAAINKWVSNKTEGRITDVIPSEAINELTVLVLVNTIYFKGLWKSKFSPENTRKELFYKADGESCSASMMYQEGKFRYRRVAEGTQVLELPFKGDDITMVLILPKPEKSLAKVEKELTPEVLQEWLDELEEMMLVVHMPRFRIEDGFSLKEQLQDMGLVDLFSPEKSKLPGIVAEGRDDLYVSDAFHKAFLEVNEEGSEAAASTVLEAQGRSLNPNRVTFKANRPFLVFIREVPLNTIIFMGRVANPCVK
B6: the “IC50 IIa/UFH (HCA #6)” value with human thrombin was determined as 105 nM. The “IC50 fXa/UFH (HCA #6)” value with human factor Xa stood at 40 nM.

B7: LEAI.473 (other)
chain: SPVDICTAKPRDIPMNPMCIYRSPEKKATEDEGSEQKIPEATNRRVWELSKANSRFATTFYQHLADSKNDNDNIFLSPLSISTAFAMTKLGACNDTLQQLMEVFKFDTISEKTSDQIHFFFAKLNCRLYRKANKASKLVSANRLFGDKSLTFNETYQDISELVYGAKLQPLDFKENAEQSRAAINKWVSNKTEGRITDVIPSEAINELTVLVLVNTIYFKGLWKSKFSPENTRKELFYKADGESCSASMMYQEGKFRYRRVAEGTQVLELPFKGDDITMVLILPKPEKSLAKVEKELTPEVLQEWLDELEEMMLVVHMPRFRIEDGFSLKEQLQDMGLVDLFSPEKSKLPGIVAEGRDDLYVSDAFHKAFLEVNEEGSEAAASTALEADGRSLNPNRVTFKANRPFLVFIREVPLNTIIFMGRVANPCVK
Take B7: the “IC50 fXa/UFH; HCA #4” value with factor Xa is 28 nM. Also, in the test with thrombin, the “IC50 IIa/UFH; HCA #4” value was > 1000 nM.

B8: LEAI (other)
chain: SPVDICTAKPRDIPMNPMCIYRSPEKKATEDEGSEQKIPEATNRRVWELSKANSRFATTFYQHLADSKNDNDNIFLSPLSISTAFAMTKLGACNDTLQQLMEVFKFDTISEKTSDQIHFFFAKLNCRLYRKANKASKLVSANRLFGDKSLTFNETYQDISELVYGAKLQPLDFKENAEQSRAAINKWVSNKTEGRITDVIPSEAINELTVLVLVNTIYFKGLWKSKFSPENTRKELFYKADGESCSASMMYQEGKFRYRRVAEGTQVLELPFKGDDITMVLILPKPEKSLAKVEKELTPEVLQEWLDELEEMMLVVHMPRFRIEDGFSLKEQLQDMGLVDLFSPEKSKLPGIVAEGRDDLYVSDAFHKAFLEVNEEGSEAAASTALEAIGRSLNPNRVTFKANRPFLVFIREVPLNTIIFMGRVANPCVK
For the molecule B8, the “IC50 fXa/UFH; HCA #2” value with factor Xa is 37 nM. Besides, the “IC50 IIa/UFH; HCA #2” value with thrombin was 45 nM.

B9: LEAI.478 (other)
chain: SPVDICTAKPRDIPMNPMCIYRSPEKKATEDEGSEQKIPEATNRRVWELSKANSRFATTFYQHLADSKNDNDNIFLSPLSISTAFAMTKLGACNDTLQQLMEVFKFDTISEKTSDQIHFFFAKLNCRLYRKANKASKLVSANRLFGDKSLTFNETYQDISELVYGAKLQPLDFKENAEQSRAAINKWVSNKTEGRITDVIPSEAINELTVLVLVNTIYFKGLWKSKFSPENTRKELFYKADGESCSASMMYQEGKFRYRRVAEGTQVLELPFKGDDITMVLILPKPEKSLAKVEKELTPEVLQEWLDELEEMMLVVHMPRFRIEDGFSLKEQLQDMGLVDLFSPEKSKLPGIVAEGRDDLYVSDAFHKAFLEVNEEGSEAAASTALEASGRSLNPNRVTFKANRPFLVFIREVPLNTIIFMGRVANPCVK
As to B9, in the test with factor Xa, the “IC50 fXa/UFH; HCA #4” value was found to be 12 nM, the “rsd. Xa catG; CA #12; stg1 conc 200” value was 1%, the “rsd. Xa hne; CA #12; stg1 conc 200” value was determined as 1% and the “rsd. Xa no add; CA #12; stg1 conc 200” value turned out to be 1%. In the test with thrombin, the “IC50 IIa/UFH; HCA #4” value was 100 nM, the “rsd. IIa catG; CA #12; stg1 conc 200” value was determined as 1%, the “rsd. IIa hne; CA #12; stg1 conc 200” value amounted to 79% and the “rsd. IIa no add; CA #12; stg1 conc 200” value came to 1%.

B10: LEAI.481 (other)
chain: SPVDICTAKPRDIPMNPMCIYRSPEKKATEDEGSEQKIPEATNRRVWELSKANSRFATTFYQHLADSKNDNDNIFLSPLSISTAFAMTKLGACNDTLQQLMEVFKFDTISEKTSDQIHFFFAKLNCRLYRKANKASKLVSANRLFGDKSLTFNETYQDISELVYGAKLQPLDFKENAEQSRAAINKWVSNKTEGRITDVIPSEAINELTVLVLVNTIYFKGLWKSKFSPENTRKELFYKADGESCSASMMYQEGKFRYRRVAEGTQVLELPFKGDDITMVLILPKPEKSLAKVEKELTPEVLQEWLDELEEMMLVVHMPRFRIEDGFSLKEQLQDMGLVDLFSPEKSKLPGIVAEGRDDLYVSDAFHKAFLEVNEEGSEAAASTALEAGGRSLNPNRVTFKANRPFLVFIREVPLNTIIFMGRVANPCVK
For the molecule B10, the “IC50 fXa/UFH; HCA #3” value in the test with factor Xa amounted to 24 nM. The “IC50 IIa/UFH; HCA #3” value with thrombin was found to be 220 nM.
